The target of one experiment is T1, deglycosylated FMOD (bovine, UniProt P13605 19-376, N-linked oligosaccharides (including keratan sulphate) removed with N-glycosidase F).
T1 construct: The same polypeptide as FMOD, without its N-linked glycans; also called N-glycosidase F-treated FMOD
T1 sequence (looked up): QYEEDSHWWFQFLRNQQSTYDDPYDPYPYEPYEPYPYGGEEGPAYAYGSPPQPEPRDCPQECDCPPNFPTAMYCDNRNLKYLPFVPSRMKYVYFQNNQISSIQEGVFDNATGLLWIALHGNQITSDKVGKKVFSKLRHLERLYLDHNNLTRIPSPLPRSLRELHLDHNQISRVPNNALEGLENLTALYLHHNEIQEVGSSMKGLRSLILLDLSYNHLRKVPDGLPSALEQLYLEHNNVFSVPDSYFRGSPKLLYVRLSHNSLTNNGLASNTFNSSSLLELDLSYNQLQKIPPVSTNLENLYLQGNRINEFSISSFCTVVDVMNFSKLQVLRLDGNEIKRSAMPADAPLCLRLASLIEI
The experiment can be described thus: microtitre plate assay, deglycosylated against untreated FMOD coated.

A further experiment addresses T2, fibromodulin (bovine, UniProt P13605 19-376, glycosylated (N-linked oligosaccharides including keratan sulphate), as isolated).
T2 construct: Isolated from tissue; coated on microtitre plates at 10 ug/ml; also called FMOD; untreated (glycosylated) FMOD
T2 sequence (looked up): T1 sequence (looked up)
In words: plate assay: FMOD coated on microtitre wells at 10 ug/ml, biotinylated protein in fluid phase, detection with streptavidin peroxidase kit, A490, background subtracted. On the procedure:
FIG. 12: Binding of FHCCP6-8(H384), FHCCP6-8(Y384) and full length FH to FMOD. A. FMOD was coated in microtitre plate wells at a concentration of 10 μg/ml. BSA was used as the negative coating control. FHCCP6-8(H384) and FHCCP6-8(Y384) recombinant proteins or full length FH were incubated in fluid phase and bound protein was detected with a specific polyclonal antibody. B. FMOD was coated in microtitre plate wells as described for A. Biotinylated versions of FHCCP6-8(H384) and FHCCP6-8(Y384) were incubated in the wells and bound protein was detected with a streptavidin peroxidase kit. C. Untreated (glycosylated) and N-glycosidase F-treated FMOD were assessed for binding full length FH in a microtitre plate based binding assay. Bound protein was detected with a specific polyclonal antibody. […]
CRP or FMOD was coated overnight at 4° C. onto microtiter plates (Maxisorp, Nunc) at a concentration of 10 μg/ml in 75 mM sodium carbonate buffer, pH 9.6. […] The amount of bound protein was assessed using a goat polyclonal anti-FH antibody (Quidel, Cat # A312) followed by HRP-labeled anti-goat secondary antibodies (Dako) and the OPD development kit (Dako). Detection of biotinylated protein was performed using a StreptABComplex/HRP-kit from Dako, and in both cases the absorbance at 490 nm was measured to quantify protein binding.

For the next experiment, the target named is T3, C-reactive protein (UniProt P02741 19-224).
T3 construct: Bought; Coated on microtitre plates at 10 ug/ml; also called CRP; recombinant CRP
T3 sequence (looked up): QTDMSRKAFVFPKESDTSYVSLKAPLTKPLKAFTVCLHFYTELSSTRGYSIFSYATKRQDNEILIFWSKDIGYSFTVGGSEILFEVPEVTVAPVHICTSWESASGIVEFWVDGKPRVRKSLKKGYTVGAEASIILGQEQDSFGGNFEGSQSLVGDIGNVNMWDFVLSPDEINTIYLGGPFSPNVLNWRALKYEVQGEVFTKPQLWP
The experiment can be described thus: plate assay: CRP coated on microtitre wells (10 ug/ml), unlabelled protein in fluid phase, detection with goat polyclonal anti-FH antibody and HRP secondary, A490, background subtracted. On the procedure:
CRP or FMOD was coated overnight at 4° C. onto microtiter plates (Maxisorp, Nunc) at a concentration of 10 μg/ml in 75 mM sodium carbonate buffer, pH 9.6. Wells treated only with coating buffer or 1% (w/v) BSA (Sigma) in coating buffer (for the assays involving FMOD) were used as negative controls. Between each step the wells were washed extensively with 50 mM Tris-HCl, 150 mM NaCl, 0.1% (v/v) Tween 20, pH 7.5. All wells were blocked with 1% (w/v) BSA (Sigma) in phosphate buffered saline (Invitrogen) for 1 hour at 37° C. FHCCP6-8(H384) and FHCCP6-8(Y384) were added at varrying concentrations in the binding buffer (50 mM HEPES, 100 mM NaCl, 2 mM CaCl₂, pH 7.4); full length FH served as a positive control. In the experiments with FMOD, 50 μg/ml BSA was included in the binding buffer. The amount of bound protein was assessed using a goat polyclonal anti-FH antibody (Quidel, Cat # A312) followed by HRP-labeled anti-goat secondary antibodies (Dako) and the OPD development kit (Dako). Detection of biotinylated protein was performed using a StreptABComplex/HRP-kit from Dako, and in both cases the absorbance at 490 nm was measured to quantify protein binding.

Positions count from the first letter of the chain named. In names and notes the source's numbering stands.

B1: FHCCP6-8(Y384) (other)
chain: GTLKPCDYPDIKHGGLYHENMRRPYFPVAVGKYYSYYCDEHFETPSGSYWDHIHCTQDGWSPAVPCLRKCYFPYLENGYNQNYGRKFVQGKSIDVACHPGYALPKAQTTVTCMENGWSPTPRCIRVKTCSKSSIDIENGFISESQYTYALKEKAKYQCKLGYVTADGETSGSITCGKDGWSAQPTCI
modifications: in some assays biotinylated with EZlink N-hydroxysuccinimide-LC Biotin (sites not given)
notes: Made by site-directed mutagenesis (H384Y) of FHCCP6-8(H384); also called FHCCP68 (Y384 allotype); Y384 variant
The term EC50 (read off the curve) denotes the concentration at which the effect is half-maximal. A higher EC50 (read off the curve) goes with weaker potency. Take B1: the binding result with deglycosylated FMOD and with fibromodulin was “binds” each time. Also, the “EC50 (read off the curve)” value with C-reactive protein is ~1 µg/mL.

B2: FHCCP6-8(H384) (other)
chain: B1 chain with Y83H
modifications: in some assays biotinylated with EZlink N-hydroxysuccinimide-LC Biotin (sites not given)
notes: Used unlabelled (detected with a goat polyclonal anti-FH antibody) or biotinylated; also called FHCCP68 (H384 allotype); H384 variant
As for B2, the binding result with deglycosylated FMOD and with fibromodulin was “binds” in each case.

These data come from US20080171343A1 (UNIVERSITY OF MANCHESTER, published 2008).
